Assay results published in US20220204613A1 (D 10 THERAPEUTICS, published 2022).
Changes are numbered by the printed parent chain. In names and notes the source's numbering stands. One block for each molecule: values may come before it.

Assays:
[1] = molecular target: T1, human CD47 protein (human, UniProt Q08722 19-139, limits assumed); test: SPR Biacore, supernatant ranking run, human CD47 analyte 5 nM
T1 construct: also called human CD47 antigen

[2] = molecular target: T1, human CD47 protein; test: SPR (Biacore) affinity ranking, ligand captured through Fc, human CD47 as analyte, 25 °C, 1:1 Binding model; fit of a flat sensorgram
[3] = molecular target: T2, extracellular domain of human CD47 (human, UniProt Q08722 19-139); test: hybridoma screening ELISA on the immunogen
T2 construct: also called immunogen
Method: Balb/c mice (4-6 mice per group) were immunized with the extracellular domain of human CD47 and immune adjuvant. Immune boosts were performed 3-5 times. Serum collection and titer evaluation by ELISA against target immunogen were performed. Spleens were extracted surgically from the highest titer mouse or mice. Mouse spleen cells were fused with rat myeloma cells facilitated by PEG. Fused cells were seeded into 96-well plates in the presence of HAT Fusion medium. Three consecutive rounds of clone testing were performed by ELISA using the immunogen for positive screening to identify and validate the positive hybridoma clones. Hybridoma cell lines producing the most suitable antibodies were subcloned and expanded for monoclonal antibody production and cell storage.

[4] = molecular target: T1, human CD47 protein; test: SPR Biacore, supernatant antibody Fc-captured, human CD47 analyte 5 nM
Method: Production and affinity ranking of humanized antibodies. The designed plasmids of heavy chain and light chain were sent for 3 mL transfection following GenScript's SOP. For affinity ranking, Antibodies were captured on the sensor chip through Fc capture method. Human CD47 protein was used as the analyte. The surface was regenerated before the injection of another antibody. The process was repeated until all antibodies were analyzed. The off-rates of antibodies were obtained from fitting the experimental data locally to 1:1 interaction model using the Biacore® T200/8K evaluation software. The antibodies were ranked by their dissociation rate constants (off-rates, kd).

T1 sequence (Q08722 19-139 limits assumed): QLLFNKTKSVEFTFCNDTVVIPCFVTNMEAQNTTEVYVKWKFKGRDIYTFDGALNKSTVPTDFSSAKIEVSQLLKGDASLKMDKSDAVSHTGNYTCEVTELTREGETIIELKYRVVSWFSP
T2 sequence (Q08722 19-139 limits assumed): as above

Molecule: NC
Kd [1]: 387 nM
koff [1]: 0.0179 s⁻¹
kon [1]: 46300 M⁻¹ s⁻¹
Kd [2]: 387 nM
koff [2]: 0.0179 s⁻¹
kon [2]: 46300 M⁻¹ s⁻¹

B1: 37H4H3 (antibody, V domains shown)
VH: EVQLQQSGPELVKPGASVKLSCKASGYTFTSSVMHWVKQKPGQGLEWLGYINPYSDGTKFNEKYKTKATLTSDKSSSTAYMELSSLTSEDSAVYYCARGLIGTRYDSWFAYWGQGTLVTVSA
VL: DIQMTQNASSLSASLGDRVTISCRTSQDINNYLNWYQQKPDGTVKLLIYYTSRLHSGVPSRFSGSGSGTDYSLSIRYLEQEDIATYFCHQGNTLPYTFGGGTKLEIK
notes: Mouse hybridoma antibody; also called antibody 37H4H3
binding result [3]: binds

B3: chimeric-VH-PTM1+VL-1 (antibody, human IgG4 S228P, V domains shown)
VH: B1 VH with M34I, D56E, Y64S, T66I
VL: B1 VL with A8G, P40Q, S74T, Y77N, H89Q
notes: Heavy chain with hIgG4 CH (S228P); Light chain: mouse VL-1 with a human constant region; Tested from supernatant; also called U0959FD090-chimeric-VH-PTM1 with 32G8H6 VL-1
Kd [4]: 0.292 nM
koff [4]: 0.00215 s⁻¹
kon [4]: 7.36e+06 M⁻¹ s⁻¹

B7: VH2+VL2 (antibody, human IgG4 S228P, kappa, V domains shown)
VH: QVQLVQSGAEVKKPGASVKVSCKASGYTFTSSVIHWVRQAPGQGLEWLGYINPYSDGTKFNEKCKIRATMTSDTSISTAYMELSRLRSDDTAVYYCARGLIGTRYDSWFAYWGQGTLVTVSS
VL: DIQMTQSPSSLSASVGDRVTITCRTSQDINNYLNWYQQKPGKAVKLLIYYTSRLHSGVPSRFSGSGSGTDFTFTISSLQPEDIATYFCQQGNTLPYTFGGGTKVEIKR
notes: Humanized IgG, hIgG4 CH (S228P) and human kappa CL; leader residues 1-19 of each entry left out; Tested from supernatant; also called U0959FD090-VH2 + U0959FD090-VL2
Kd [4]: 0.698 nM
koff [4]: 0.00413 s⁻¹
kon [4]: 5.92e+06 M⁻¹ s⁻¹

B8: VH4+VL2 (antibody, human IgG4 S228P, kappa, V domains shown)
VH: B7 VH with R38K, T74K
VL: B7 VL
notes: Humanized IgG, hIgG4 CH (S228P) and human kappa CL; leader residues 1-19 of each entry left out; Tested from supernatant; also called U0959FD090-VH4 + U0959FD090-VL2
Kd [4]: 0.772 nM
koff [4]: 0.00335 s⁻¹
kon [4]: 4.34e+06 M⁻¹ s⁻¹

B9: VH1+VL4 (antibody, human IgG4 S228P, kappa, V domains shown)
VH: B7 VH with L48M, A68V, S72R
VL: B7 VL with T22S, A43T, F71Y
notes: Humanized IgG, hIgG4 CH (S228P) and human kappa CL; leader residues 1-19 of each entry left out; Tested from supernatant; also called U0959FD090-VH1 + U0959FD090-VL4
Kd [4]: 0.266 nM
koff [4]: 0.00128 s⁻¹
kon [4]: 4.8e+06 M⁻¹ s⁻¹

B10: VH3+VL1 (antibody, human IgG4 S228P, kappa, V domains shown)
VH: B7 VH with R38K, A68V, M70L
VL: B7 VL with V44P, F87Y
notes: Humanized IgG, hIgG4 CH (S228P) and human kappa CL; leader residues 1-19 of each entry left out; Tested from supernatant; also called U0959FD090-VH3 + U0959FD090-VL1
Kd [4]: 0.803 nM
koff [4]: 0.00553 s⁻¹
kon [4]: 6.89e+06 M⁻¹ s⁻¹

B11: VH1+VL1 (antibody, human IgG4 S228P, kappa, V domains shown)
VH: B7 VH with L48M, A68V, S72R
VL: B7 VL with V44P, F87Y
notes: Humanized IgG, hIgG4 CH (S228P) and human kappa CL; Tested from supernatant; also called U0959FD090-VH1 + U0959FD090-VL1
Kd [4]: 0.412 nM
koff [4]: 0.0021 s⁻¹
kon [4]: 5.1e+06 M⁻¹ s⁻¹

B12: VH3+VL3 (antibody, human IgG4 S228P, kappa, V domains shown)
VH: B7 VH with R38K, A68V, M70L
VL: B7 VL with F71Y
notes: Humanized IgG, hIgG4 CH (S228P) and human kappa CL; leader residues 1-19 of each entry left out; Tested from supernatant; also called U0959FD090-VH3 + U0959FD090-VL3
Kd [4]: 0.602 nM
koff [4]: 0.00312 s⁻¹
kon [4]: 5.18e+06 M⁻¹ s⁻¹

Second part, the molecule after the results:

binding result [3]: binds
B2: 38F1E12 (antibody, V domains shown)
VH: EVQLQQSGPELVQPGASVRMSCKASGYTFTSYVMHWVKQKPGQGLEWIGYINPYNDGTKYNEKFKGKATLTSDKSSSTAYMELSSLTSEDSAVYYCARGRNRYDGWFTYWGQGTLVTVSA
VL: B1 VL with N7T, A8T, S9F, T25A, N30S, S74T, R76S, Y77N, H89Q
notes: Mouse hybridoma antibody; also called antibody 38F1E12

binding result [3]: binds
B4: 33H11F3 (antibody, V domains shown)
VH: EVQLQQSGPELVKPGASVKMSCKASGYTFTSYVMHWVKQKPGQGLEWMGYINPYNDGTKYNEKFKGKATLTSDKSSNTAYMEFSSLTSEDSAVYYCARIDYGTIHTSWFAYWGQGTLVTVSA
VL: B1 VL with Q6H, N7T, A8T, T25A, N30S, S74T, R76S, Y77N, H89Q, Y96W
notes: Mouse hybridoma antibody; also called antibody 33H11F3

Kd [4]: 0.488 nM
koff [4]: 0.00442 s⁻¹
kon [4]: 9.06e+06 M⁻¹ s⁻¹
B5: chimeric-VH-PTM2+VL-1 (antibody, human IgG4 S228P, V domains shown)
VH: B1 VH with M34I, G57A, Y64S, T66I
VL: B1 VL with A8G, P40Q, S74T, Y77N, H89Q
notes: Heavy chain with hIgG4 CH (S228P); Light chain: mouse VL-1 with a human constant region; Tested from supernatant; also called U0959FD090-chimeric-VH-PTM2 with 32G8H6 VL-1

binding result [3]: binds
B6: 41B1H9 (antibody, V domains shown)
VH: EVQLQQSGTELVKPGASVRLSCTASGLDIKDTYMHWLKQRPEQGLEWIGRIDPASGNAKHDPKFQGKATITSDPSSNTANLQLTSLTSEDSAVYYCASGYGHYVGAMDYWGQGTSVTVSS
VL: DIQMNQSPSSLSASLGDTITITCHASQNINVWLSWYQQKPGNIPKLLIYKASNLHTGVPSRFSGSGSGTGFTLTISSLQPEDIATYYCQQSRNYPYTFGGGTKLEIK
notes: Mouse hybridoma antibody; also called antibody 41B1H9
